This note sets out measurements from patent publication US20030175712A1 (published 2003).

Substitutions are numbered along the chain they refer to.

The target of assay [1] is T1, Cdc24-m3p (1-288 aa), GAL4 two-hybrid fusion (S. cerevisiae, UniProt P11433 1-288).
T1 sequence: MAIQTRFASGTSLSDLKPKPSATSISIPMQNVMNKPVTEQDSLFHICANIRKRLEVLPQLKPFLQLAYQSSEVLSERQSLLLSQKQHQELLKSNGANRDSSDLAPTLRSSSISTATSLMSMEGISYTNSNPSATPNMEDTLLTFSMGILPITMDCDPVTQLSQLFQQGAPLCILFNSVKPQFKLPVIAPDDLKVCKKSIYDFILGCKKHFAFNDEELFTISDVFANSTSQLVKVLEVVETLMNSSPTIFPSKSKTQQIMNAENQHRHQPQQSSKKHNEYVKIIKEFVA
Put plainly: yeast two-hybrid, growth on -leu-trp-his. The method, then:
(§1) Plasmids were transformed into HF7c. For determination of STE18 requirement, PCR-based geene disruption was carried out in PJ69-4A (MATa, trp1-901, leu2-3,112, ura3-52, his3-200, gal4D, gal80D, GAL2-ADE2, LYS2::GAL1-HIS3, met2::GAL7-lacZ)²⁹, replacing the entire STE18 ORF with K. Lactis URA3³⁰. For all two-hybrid experiments, equal amounts of transfonnants were spotted on SC-leu-trp and SC-leu-trp-his plates, identical results were obtained with at least four transformants, and for Dste18 two independent deletion strains. All strains for two-hybrid analyses expressed similar amounts of AD- and DBD- fusion proteins of the expected sizes, as determined by SDS-PAGE and immuno-blotting.
(§2) cdc24-m mutants are defective in mating and Ste4p (Gβ) binding. a, Location of Cdc24p mating mutations. Mating patches show diploids from mating with MATa WT tester. Ste4 2-H patch growth on -leu-trp-his indicates an interaction of Cdc24p (1-288 aa) with Ste4p. Similar results were obtained using a LacZ reporter in strain Y187 (relative Miller Units 100 for Cdc24/Ste4 and 3 for Cdc24-m1/Ste4). b, Two hybrid interactions of Cdc24p. Fror interactions with Ste4p, a fragment of Cdc24p (1-288 aa) was used, however, fill length Cdc24p also interats with Ste4p. c, Region of Cdc24p necessary for Ste4p interaction. […]

In assay [2] the target is T2, Cdc24-m1p (1-288 aa), GAL4 two-hybrid fusion (S. cerevisiae, UniProt P11433 1-288).
T2 construct: also called cdc24-m1 (1-288)
T2 sequence: T1 sequence with P189F
Put plainly: yeast two-hybrid, growth on -leu-trp-his. On the procedure: as §1, §2

For assay [3], the target named is T3, Cdc24p (1-160 aa) fused to GAL4 DBD (S. cerevisiae, UniProt P04386 1-147; P11433 1-160).
T3 construct: also called amino-terminal fragment consisting of the first 160 amino acid residues
Put plainly: yeast two-hybrid, Cdc24p fragments fused to DBD. On the procedure: as §1, §2

The next assay addresses T4, GST (UniProt P08515 1-218 = GST).
T4 construct: Control; also called GST alone; glutathione-S-transferase
Put plainly: GSH-agarose pull-down from mixed bacterial extracts, immunoblot. The method, then: (§3) A fragment of CDC24 (1-472 aa) in pGEX-2T (Pharmacia) and His₆Ste4p (pTrcSte4) were expressed in E. coli. Cells were resuspended in buffer A (PBS, 0.1% TX-100, Phenyl Methyl Sulfonyl Fluoride (PMSF), leupeptin, chymostatin, pepstatin, aprotinin) and lysed by snap freezing in liquid nitrogen followed by sonicatioin. Insoluble material was removed by centrifuigation (10,000 g). Mixed supernatants (denoted cell extracts) containing His₆Ste4 and GSTCdc24 fusions were incubated with GSH-agarose (Sigma Chemical Co.) at 4° for 1 hr. Resin was washed 3 times with buffer A. Resin samples (referred to as eluates) and extracts were analyzed by SDS-PAGE, immuno-blottinig probed with Omni-probe anti-sera (Santa Cruz), and visualised with enhanced chemiluhniuescence (Amershan).
as §2

The target of the next assay is T5, GSTCdc24p (1-127 aa) (S. cerevisiae, UniProt P11433 1-127).
T5 construct: not shown: glutathione-S-transferase as encoded by pGEX-2T (Pharmacia)
T5 sequence (looked up): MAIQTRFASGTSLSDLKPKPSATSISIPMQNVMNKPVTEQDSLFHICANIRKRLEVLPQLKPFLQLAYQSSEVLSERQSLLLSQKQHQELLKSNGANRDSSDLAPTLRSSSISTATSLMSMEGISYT
The assay is described as above. On the procedure: as §3, §2

T4 sequence (P08515 whole entry): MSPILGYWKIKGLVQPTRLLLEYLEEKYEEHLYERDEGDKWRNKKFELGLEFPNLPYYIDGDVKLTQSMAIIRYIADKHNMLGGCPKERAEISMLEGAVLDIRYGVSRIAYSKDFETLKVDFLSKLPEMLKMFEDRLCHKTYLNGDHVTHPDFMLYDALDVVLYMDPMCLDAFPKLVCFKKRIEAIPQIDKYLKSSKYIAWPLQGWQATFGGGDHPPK

B1: Ste4p, GAL4 two-hybrid fusion (other, not shown: small tags and cut ends)
chain: MAHQMDSITYSNNVTQQYIQPQSLQDISAVEEEIQNKIEAARQESKQLHAQINKAKHKIQDASLFQMANKVTSLTKNKINLKPNIVLKGHNNKISDFRWSRDSKRILSASQDGFMLIWDSASGLKQNAIPLDSQWVLSCAISPSSTLVASAGLNNNCTIYRVSKENRVAQNVASIFKGHTCYISDIEFTDNAHILTASGDMTCALWDIPKAKRVREYSDHLGDVLALAIPEEPNLENSSNTFASCGSDGYTYIWDSRSPSAVQSFYVNDSDINALRFFKDGMSIVAGSDNGAINMYDLRSDCSIATFSLFRGYEERTPTPTYMAANMEYNTAQSPQTLKSTSSSYLDNQGVVSLDFSASGRLMYSCYTDIGCVVWDVLKGEIVGKLEGHGGRVTGVRSSPDGLAVCTGSWDSTMKIWSPGYQ
notes: also called Gβ
As for B1, the binding result in assay [1], in assay [2] and in assay [3] was “no binding” each time.

B2: His6Ste4p (other)
chain: B1 chain
notes: Expressed in E. coli; migrates as a doublet due to proteolysis; also called Hexahistidine-tagged Ste4p; pTrcSte4; not shown: hexahistidine tag with the leader of the pTrc vector
With B2, the binding result in the assay with GST and in the assay with GSTCdc24p (1-127 aa) was “no binding” each time.
